Source: the DeepSol protein solubility set

test: soluble on expression in E. coli; label from the status in PepcDB or PDB records

Sequence	soluble on expression in E. coli
MTPIPLINIPLCNLAGDGYILSEKSQSQNMLRGIVMSETVRVGLLGYGYASKTFHAPLIAGTAGMELVAVSSSNAEKVHADWANLRVEKDPQALFSDPDIDLIVIPTPNDTHFPLAKQALEAGKHVVVDKPFTVTLSQAYDLGAIAERAGKVLSVFHNRRWDSDFLTLKQLLSAGTLGNVVYMESHFDRFRPEVRQRWREDGSEGSGIWYDLGPHLLDQALELFGLPVAIQVDMAQLRPGSKATDYFHATLIYPQRRVILHASMLVAAASARYTVHGTRGSFVKYGLDPQEDRLKAGERPPLADWGQDKHDGVLTLSRDGITAEQTIATIPGNYPAYYAAVRDALLGKGENPVGVNQAIQVMELIELGLLSHEQKKAVALKNSLEHHHHHH	not soluble
MANFPASLLILNGKSADNQPLREAITLLRDEGIQIHVRVTWEKGDAQRYVDEARRLGVETVIAGGGDGTINEVSTALIQIRDGVAPALGLLPLGTANDFATSAGIPEALDKALKLAIAGNAMEIDMAMVNDKTCFINMATGGFGTRITTETPEKLKAALGGVSYLIHGLMRMDTLTPDRCEIRGENFHWQGDALVIGIGNGRQAGGGQQLCPTALINDGLLQLRIFTGEELLPALFSTLTQSDDNPNIIDGASAWFDIHAPHEITFNLDGEPLSGQEFHIEVLPGALRCRLPPDCPLLR	soluble
MSKETGKMAEEPPGSSSSAKPVTSSKKPPPNDVTTTTNTTKTTNSNQQEDMYLNGNNPYYGGFYANNRYLFPSTSSQATCIGTSSEDSPPPPPPSANGSIHRKHHQNANHHQNSRHAISDTVAVAGDDLSNVPAAVVIQLEKANRTIASQTLEIERLKSYQNQNLETHLLKKQIHDLEKEVRSGRSRFLEQQELLAEMSREMDILLREKLEMQRNSQELEKKYKKAKFASRELAKILENDLCGTPTTSNLKNFESDDEFFEEKSLFEKSRALSRQQIPNDLLEKTRKIDFSEAKNAKNQDLIDKLIDENENLQISLNREQKMTSSLQDDLEKSRRMVIDRDEHIEELKMKLGKAETKASQCESDLTQTSSDLAMERLRCEVLTGELHEIDGIFRNTQSTIQAYADDNDRLEDQCRQAQRTILTLNSKL	not soluble
MQKPSIPKGMRDFSPVEMSRRNYIFDTIREVYELFGFNQIETPTMEMLSTLMGKYGEEGDRLLFKVLNSGDVLADFCAEELAEKNSLRFAAKACEKGLRYDLTVPFARYVVMHRNEINFPFKRYQIQPVWRADRPQKGRYREFYQCDGDVIGSDSLMNEVELIQIISEVFRRLGIRTRILLNNRKILSGIAEVVDEADRLTDITVAIDKLDKIGLDKVNDELRTKGFGEEAIERLRPFIEMKGDNREKLDRLKSALASSETGLKGIEELTYILDKVERVQLHSELMVDISLARGLSYYTGAILEVKALDAEMGSITGGGRYDNLTGIFGLEGMSGVGISFGADRIYDVMMQLDLFPAEKLTGTQLLFVNFSEEDADSLLPLIQKLREQGLRTELYPEPAKIKKQMSYANAANIPYVALVGENERAAGQVNLKNMLTGEQQMLPADAATIVAAIV	not soluble
MQPYTAPSEIALRQLDYFADKHVLVAGEVEDRFPIELRQYCASVSVFTTHYGYYSQLKAYPEITRYFGEQLTADLNADLILLYWPKAKQEAEYLLAMLLAKLGTGTEIVVVGENRSGVKSIEKMFAAYGPIHKYDSARRCSFYWGHCVHTPAAFDIEQWFKSYAVDYQGHELTIRSLPGVFSHGEFDLGSRLLLDTLPPLSGKVIDIGSGAGVLGCVMAKLNPHIELEMTDISALAIRSSQETLVANQLHGHVYPSDMFSDTGHHYNYIVTNPPFHSGLETSYSATERLLAESVDHLASGGSIWVVANSFLKYPPILEQAFGHCDIAAKTNKFAIYHAKK	not soluble
MAHHHHHHMTAAERLRRSRDNAVHHPKPSAATSSTISPALALSSSNSSPSANAAVPIEISPPPPNQGAVMIRYSKQQLLSLRPAAIEHVMRGRVVDHPPFLKIPESFAPLLSLPFAMEYVNVDAAMQLVEHRSYASRPASSPPTSVARTEDLDDEAQARLYTCPVCAQGRLHSCTAIQHILQRTSRYFMSTKLGAALMQPALVVESLLQLALVFDAKQSSLRLRMLAEQSPRVVHLVEEYLCGEGYHLPLPPVTAHEDWAALNAMLRFDAIRDNKTRVITDLSKHWKKRRTQFEQFVYFFAFRDARPVRPAKNIITKSAKPGMVAMLTGDVPAMVLLHRLGFFIPPDYYWKVFPFLRQALGEGTLSYDVVRHLGLYLSSAQPADMYNPVEVPIHA	soluble
MTIEKEIEGLIHKTNKDLLNENANKDSRVFPTQRDLMAGIVSKHIAKNMVPSFIMKAHESGIIHVHDIDYSPALPFTNCCLVDLKGMLENGFKLGNAQIETPKSIGVATAIMAQITAQVASHQYGGTTFANVDKVLSPYVKRTYAKHIEDAEKWQIADALNYAQSKTEKDVYDAFQAYEYEVNTLFSSNGQTPFVTITFGTGTDWTERMIQKAILKNRIKGLGRDGITPIFPKLVMFVEEGVNLYKDDPNYDIKQLALECASKRMYPDIISAKNNKAITGSSVPVSPMGCRSFLSVWKDSTGNEILDGRNNLGVVTLNLPRIALDSYIGTQFNEQKFVELFNERMDLCFEALMCRISSLKGVKATVAPILYQEGAFGVRLKPDDDIIELFKNGRSSVSLGYIGIHELNILVGRDIGREILTKMNAHLKQWTERTGFAFSLYSTPAENLCYRFCKLDTEKYGSVKDVTDKGWYTNSFHVSVEENITPFEKISREAPYHFIATGGHISYVELPDMKNNLKGLEAVWDYAAQHLDYFGVNMPVDKCFTCGSTHEMTPTENGFVCSICGETDPKKMNTIRRTCAYLGNPNERGFNLGKNKEIMHRVKHQ	soluble
MGSDKIHHHHHHMIVALFALLASGCGHSQRTLEFRGICVDDPQGENGLYNPGRGFRLETAVDVLHEKDTPTEELNELSAKYVADSVSLSQSYFYLTYLIGKELSEENFRTMQAYFDELQKQGKKAVLRFAYERDFMGRSPVGPTGEQILAHLDQLKPFLEKNKDLILVVQAGMIGAWGEWHSSVQGLENSEETKAAVLEKLLSVVPAERNVQVRLPEFKNLLKDKPELYKRLSFHDDFIVIRPDRWDADMHEGTPKFDQIVAESPYLVVDGELPWGFWSVGADPDSPSAGWIIDGMQAARRLFLQHYTSLSIIHNYKEQHPNNRFDENNPPEYSMVVWKKTMITEDSLLQHHMPVSDSYFRKKDGTKVKRNMFDYIRDHLGYRIELQSLQLPSKFVSGKENVLKLSLKNRGFATVFGEHPVYFVLIDDAGEVTEFPTDANPKNWQPFEPKDSAYTSLMHTVDVSLELPASVTAGTYKLGLWIPDGSDRLRYNPRYAIHCANGDTDWWISKDGKYGVNVLTAVEVE	not soluble
MAHHHHHHMEYMHHIQGVVVLNDSGNRVFVKYYLNEDMKARGVLTTLEKQRALERVIYDAVSAPKRNWAASKDGDIVLHDVHSILFHVWGSITFAIVGDIKENEMVMHTVLRCIVDALQRILKTQDITHKGILEKYDALVLAVDEVIDDGIVLETSAQNVADDVAPFMADAETDTARSALSKVNEYLKENL	soluble
SLTLNDKYPFTDEDQAIINSYKAVVDGVSALIGEHCEIVLHSLENIEHSAICIANGHNTNRQVGSPITDLALRSLRNMQSESVSKPYFTRAKGSVLMKSVTIAIRNKTQRIIGLLCININLDVPVSQFLQCFMLTEHTNETSSVNFANSVEDLVAQTIEKTIEEVNADRAVANNTKNRQIVLSLYEKGIFDIKDAINLVAERLDISRHTVYLYIRQIKQEQE	soluble
MEFGVPRERSGGEIPERRVPLTPQGVRELVASGHRVYVERGAGEGAGFPDEAYEEAGARLVGREEAFGRPQVVLKVARPTLEEVGLMRKNAVLMAFLHLAVAESPLVEAMAQKGLTAIGYELVGEEGRRPVLKAMSEIAGRMAPQLAGRLLEAPQGPGILLSGLVGIPPADVVVLGAGVLGRAAARAFLGAGASVHLLDRALPPLEEAAREAPGAITALVTQDRLERYVAFADVLVGAVAVPGERTPLLLTRGLLARMRPGSVLLDFSIDQGGVSETSRPGVYQEMGVTHFCLPNVPALVPRTASHALTLTLLPYLLRIQEDPLALPGLRQGAYLLFGEKGGHLE	soluble
CATGTRQSPINIQWKDSVYDPQLAPLRVSYDAASCRYLWNTGYAFQVEFDDSCEDSGISGGPLGNHYRLKQFHFHWGATDEWGSEHAVDGHTYPAELHLVHWNSTKYENCKKASVGENGLAVIGVFLKLGAHHQALQKLVDVLPEVRHKDTQVAMGPFDPSCLMPACRDYWTYPGSLTTPPLAESVTWIVQKTPVEVSPSQLSMFRTLLFSGRGEEEDVMVNNYRPLQPLRDRKLRSSFRLDRTKMRS	soluble
